The values below come from patent publication US20110263454A1, “Methods of Identifying Functional Characteristics of Promoters, Transcription Modifying Proteins and Transcription Modulating Agents” (Salk Institute for Biological Studies, priority 2008, published 2011).

The test system of one experiment is hIFNg promoter. Put plainly: NHR-promoter luciferase screen, hIFNg promoter. Format: cell-based, human. The settings on record: for Luc. act., normalized to lacZ / Normalized Luc. act., normalized to control: IFNg promoter, HR component without or with ligand; for hIFNg promoter reporter activity: transcription factor +/- ligand, control = 1.00. The method in brief: (§1)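 CV-1 cells were co-transfected with 50 ng NHR (homodimer or NHR/RXR heterodimer), 100 ng promoter-luciferase construct and 50 ng LacZ. Luciferase was normalized to LacZ and to a no-NHR/no-ligand control.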

The next experiment relates to MCP-1 promoter. Put plainly: NHR-promoter luciferase screen, MCP-1 promoter. It is filed as cell-based. The settings on record: for Normalized Luc. act., normalized to control / Luc. act., normalized to lacZ: MCP-1 promoter reporter; for Normalized Luc. act., normalized to control: HR without or with its ligand, relative to control; for Luc. act., normalized to lacZ: hormone receptor (HR) without or with its ligand; for mMCP-1 promoter reporter activity: transcription factor +/- ligand, control = 1.00. In outline:
as §1

In the next experiment the test system is mUCP1 promoter. The experiment can be described thus: NHR-promoter luciferase screen, mUCP1 promoter. The following applies: for Luc. act., normalized to lacZ / Normalized Luc. act., normalized to control: mUCP1 promoter reporter, co-transfected HR, with or without its ligand; for Normalized Luc. act., normalized to control: relative to control; for luciferase activity normalized to lacZ activity and to a control, mUCP!: mUCP! promoter-luciferase, CV-1 cells, NHR +/- ligand, control = 1.00. It is filed as cell-based, mouse. In outline: as §1

The next experiment deals with hG6PD promoter. Put plainly: NHR-promoter luciferase screen, hG6PD promoter. The settings on record: for Luc. act., normalized to lacZ / Normalized Luc. act., normalized to control: G6PD promoter reporter, co-transfected HR, without or with its ligand; for Normalized Luc. act., normalized to control: relative to control; for luciferase activity normalized to lacZ activity and to a control, hG6PD: hG6PD promoter-luciferase, CV-1 cells, NHR +/- ligand, control = 1.00. Format: cell-based, human. In outline:
as §1

For a further experiment, the system named is hPPARg2 promoter. The experiment can be described thus: NHR-promoter luciferase screen, hPPARg2 promoter. It is filed as cell-based, human. The following applies: for Luc. act., normalized to lacZ / Normalized Luc. act., normalized to control: PPARG2 promoter, hormone receptor with or without its ligand; for Normalized Luc. act., normalized to control: relative to control; for Results of assays of transcription factor (+/- ligand) with hPPARg2: Table 6d, luciferase activity relative to control (control = 1.00). In outline: as §1

A further experiment deals with mGhrelin promoter. The experiment can be described thus: NHR-promoter luciferase screen, mGhrelin promoter. The following applies: for Luc. act., normalized to lacZ / Normalized Luc. act., normalized to control: Table 8, mGhrelin; for Results of assays of transcription factor (+/- ligand) with mGhrelin: Table 6d, luciferase activity relative to control (control = 1.00). Format: cell-based, mouse. The method in brief:
as §1

B1: RXRg: Retinoic X Receptor γ (NR2B3), cDNA driver (protein, UniProt P48443 1-463, looked up)
Retinoic acid receptor …: MYGNYSHFMKFPAGYGGSPGHTGSTSMSPSAALSTGKPMDSHPSYTDTPVSAPRTLSAVGTPLNALGSPYRVITSAMGPPSGALAAPPGINLVAPPSSQLNVVNSVSSSEDIKPLPGLPGIGNMNYPSTSPGSLVKHICAICGDRSSGKHYGVYSCEGCKGFFKRTIRKDLIYTCRDNKDCLIDKRQRNRCQYCRYQKCLVMGMKREAVQEERQRSRERAESEAECATSGHEDMPVERILEAELAVEPKTESYGDMNMENSTNDPVTNICHAADKQLFTLVEWAKRIPHFSDLTLEDQVILLRAGWNELLIASFSHRSVSVQDGILLATGLHVHRSSAHSAGVGSIFDRVLTELVSKMKDMQMDKSELGCLRAIVLFNPDAKGLSNPSEVETLREKVYATLEAYTKQKYPEQPGRFAKLLLRLPALRSIGLKCLEHLFFFKLIGDTPIDTFLMEMLETPLQIT
In the case of B1, in the experiment on hIFNg promoter, the “Luc. act., normalized to lacZ” value amounted to 15.2; the “Normalized Luc. act., normalized to control” value is given as 1.0; the “hIFNg promoter reporter activity” value is listed as 0.96. Moreover, in the experiment with MCP-1 promoter, the “Normalized Luc. act., normalized to control” value turned out to be 2.0; the “Luc. act., normalized to lacZ” value amounted to 212.4; the “mMCP-1 promoter reporter activity” value is recorded as 1.98. In the experiment with mUCP1 promoter, the “Luc. act., normalized to lacZ” value was 2.5; the “Normalized Luc. act., normalized to control” value turned out to be 0.6; the “luciferase activity normalized to lacZ activity and to a control, mUCP!” value (“luciferase activity normalized … mUCP!” for short) was 0.55. Besides, in the experiment on hG6PD promoter, the “Luc. act., normalized to lacZ” value is 43.7; the “Normalized Luc. act., normalized to control” value turned out to be 1.2; the “luciferase activity normalized to lacZ activity and to a control, hG6PD” value (“luciferase activity normalized … hG6PD” for short) was found to be 1.17. Moreover, in the experiment on hPPARg2 promoter, the “Luc. act., normalized to lacZ” value is given as 1.5; the “Normalized Luc. act., normalized to control” value stood at 0.7; the “Results of assays of transcription factor (+/- ligand) with hPPARg2” value (“Results of assays … with hPPARg2” for short) was 0.74. Further, in the experiment with mGhrelin promoter, the “Luc. act., normalized to lacZ” value came out at 59.0; the “Normalized Luc. act., normalized to control” value stood at 1.1; the “Results of assays of transcription factor (+/- ligand) with mGhrelin” value (shortened to “Results of assays … with mGhrelin”) came out at 1.13.

B2: PXR: Pregnane X Receptor (NR1I2), cDNA driver (protein, UniProt O75469 1-434, looked up)
Nuclear receptor subfamily 1 …: MEVRPKESWNHADFVHCEDTESVPGKPSVNADEEVGGPQICRVCGDKATGYHFNVMTCEGCKGFFRRAMKRNARLRCPFRKGACEITRKTRRQCQACRLRKCLESGMKKEMIMSDEAVEERRALIKRKKSERTGTQPLGVQGLTEEQRMMIRELMDAQMKTFDTTFSHFKNFRLPGVLSSGCELPESLQAPSREEAAKWSQVRKDLCSLKVSLQLRGEDGSVWNYKPPADSGGKEIFSLLPHMADMSTYMFKGIISFAKVISYFRDLPIEDQISLLKGAAFELCQLRFNTVFNAETGTWECGRLSYCLEDTAGGFQQLLLEPMLKFHYMLKKLQLHEEEYVLMQAISLFSPDRPGVLQHRVVDQLQEQFAITLKSYIECNRPQPAHRFLFLKIMAMLTELRSINAQHTQRLLRIQDIHPFATPLMQELFGITGS
Regarding B2, in the experiment with hIFNg promoter, the “Luc. act., normalized to lacZ” value amounted to 23.93; the “Normalized Luc. act., normalized to control” value was 1.5; the “hIFNg promoter reporter activity” value amounted to 1.50. In the experiment on MCP-1 promoter, the “Normalized Luc. act., normalized to control” value came to 2.0; the “Luc. act., normalized to lacZ” value is reported as 209.7; the “mMCP-1 promoter reporter activity” value is given as 1.96. In the experiment on mUCP1 promoter, the “Luc. act., normalized to lacZ” value is 2.1; the “Normalized Luc. act., normalized to control” value is given as 0.5; the “luciferase activity normalized … mUCP!” value was determined as 0.47. For the same molecule, in the experiment with hG6PD promoter, the “Luc. act., normalized to lacZ” value was determined as 42.5; the “Normalized Luc. act., normalized to control” value is recorded as 1.1; the “luciferase activity normalized … hG6PD” value is 1.14. Further, in the experiment on hPPARg2 promoter, the “Luc. act., normalized to lacZ” value was 1.8; the “Normalized Luc. act., normalized to control” value came out at 0.9; the “Results of assays … with hPPARg2” value is listed as 0.91. In addition, in the experiment on mGhrelin promoter, the “Luc. act., normalized to lacZ” value is given as 136.2; the “Normalized Luc. act., normalized to control” value is given as 2.6; the “Results of assays … with mGhrelin” value is listed as 2.61.

B3: RXRb: Retinoic X Receptor β (NR2B2), cDNA driver (protein, UniProt P28702 1-533, looked up)
Retinoic acid receptor …: MSWAARPPFLPQRHAAGQCGPVGVRKEMHCGVASRWRRRRPWLDPAAAAAAAVAGGEQQTPEPEPGEAGRDGMGDSGRDSRSPDSSSPNPLPQGVPPPSPPGPPLPPSTAPSLGGSGAPPPPPMPPPPLGSPFPVISSSMGSPGLPPPAPPGFSGPVSSPQINSTVSLPGGGSGPPEDVKPPVLGVRGLHCPPPPGGPGAGKRLCAICGDRSSGKHYGVYSCEGCKGFFKRTIRKDLTYSCRDNKDCTVDKRQRNRCQYCRYQKCLATGMKREAVQEERQRGKDKDGDGEGAGGAPEEMPVDRILEAELAVEQKSDQGVEGPGGTGGSGSSPNDPVTNICQAADKQLFTLVEWAKRIPHFSSLPLDDQVILLRAGWNELLIASFSHRSIDVRDGILLATGLHVHRNSAHSAGVGAIFDRVLTELVSKMRDMRMDKTELGCLRAIILFNPDAKGLSNPSEVEVLREKVYASLETYCKQKYPEQQGRFAKLLLRLPALRSIGLKCLEHLFFFKLIGDTPIDTFLMEMLEAPHQLA
B3: in the experiment on hIFNg promoter, the “Luc. act., normalized to lacZ” value was determined as 20.0; the “Normalized Luc. act., normalized to control” value is listed as 1.3; the “hIFNg promoter reporter activity” value is given as 1.26. In the experiment on MCP-1 promoter, the “Normalized Luc. act., normalized to control” value came out at 0.0 and the “mMCP-1 promoter reporter activity” value is reported as 0.00. For the same molecule, in the experiment with mUCP1 promoter, the “Luc. act., normalized to lacZ” value was found to be 0.9; the “Normalized Luc. act., normalized to control” value is 0.2; the “luciferase activity normalized … mUCP!” value is 0.21. In the experiment with hG6PD promoter, the “Luc. act., normalized to lacZ” value is reported as 23.1; the “Normalized Luc. act., normalized to control” value is 0.6; the “luciferase activity normalized … hG6PD” value was found to be 0.62. Also, in the experiment with hPPARg2 promoter, the “Luc. act., normalized to lacZ” value is on record as 1.5; the “Normalized Luc. act., normalized to control” value is 0.8; the “Results of assays … with hPPARg2” value is on record as 0.75. For the same molecule, in the experiment with mGhrelin promoter, the “Luc. act., normalized to lacZ” value is given as 62.9; the “Normalized Luc. act., normalized to control” value is recorded as 1.2; the “Results of assays … with mGhrelin” value came to 1.20.
